Data: publication PMC12678272

How the values were obtained:
[1] = target: GST-RILP-L1 (RILP-Like 1, mouse) (mouse) (UniProt Q9JJC6); assay: pull-down; 20 ug GST fusion protein immobilised on glutathione agarose beads, incubated 18 h at 4 C with 500 ug RBL cell lysate (untreated, Ion/TPA-activated, or Ion/TPA with LY333531); 50 mM HEPES pH 7.4, 150 mM NaCl, 1 mM MgCl2, 1% Triton X-100, phosphatase inhibitors; immunoblot, quantified as percent of total input
[2] = target: GST-RILP-L2 (RILP-Like 2, mouse) (mouse) (UniProt Q99LE1); assay: as above
[3] = target: GST-RILP-L1 (RILP-Like 1, mouse) (mouse) (UniProt Q9JJC6); assay: pull-down; 20 ug GST fusion protein immobilised on glutathione agarose beads, incubated 18 h at 4 C with 500 ug RAW264.7 macrophage lysate (untreated or treated with GSK2578215A); 50 mM HEPES pH 7.4, 150 mM NaCl, 1 mM MgCl2, 1% Triton X-100, phosphatase inhibitors; immunoblot, quantified as percent of total input
[4] = target: GST-RILP-L2 (RILP-Like 2, mouse) (mouse) (UniProt Q99LE1); assay: as above

UniProt Q99LE1, sequence (Q99LE1 whole entry, the tested form may be a part): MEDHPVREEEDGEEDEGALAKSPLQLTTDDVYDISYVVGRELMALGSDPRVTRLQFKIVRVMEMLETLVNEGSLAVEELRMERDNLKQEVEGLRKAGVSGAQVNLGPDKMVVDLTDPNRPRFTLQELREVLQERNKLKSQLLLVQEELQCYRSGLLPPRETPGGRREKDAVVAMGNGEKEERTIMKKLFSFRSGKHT
UniProt Q9JJC6, sequence (Q9JJC6 whole entry, the tested form may be a part): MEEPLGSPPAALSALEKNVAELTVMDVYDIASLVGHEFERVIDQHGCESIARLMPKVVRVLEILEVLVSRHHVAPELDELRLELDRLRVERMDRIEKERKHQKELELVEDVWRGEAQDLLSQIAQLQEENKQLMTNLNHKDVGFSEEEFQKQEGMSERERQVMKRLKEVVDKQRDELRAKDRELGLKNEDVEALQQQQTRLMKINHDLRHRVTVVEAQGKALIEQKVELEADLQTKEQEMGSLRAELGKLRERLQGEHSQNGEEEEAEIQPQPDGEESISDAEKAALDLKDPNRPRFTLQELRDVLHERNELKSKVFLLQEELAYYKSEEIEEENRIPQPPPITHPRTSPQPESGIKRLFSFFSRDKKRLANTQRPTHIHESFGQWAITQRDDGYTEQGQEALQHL

| Substance | percent of total input pulled down [1] [%] | percent reduction of pull-down after LY333531, against Ion/TPA alone [1] [%] | percent of total input pulled down [2] [%] | percent reduction of pull-down after LY333531, against Ion/TPA alone [2] [%] | percent reduction of pull-down after GSK2578215A, against untreated cells [3] [%] | percent reduction of pull-down after GSK2578215A, against untreated cells [4] [%] |
| --- | --- | --- | --- | --- | --- | --- |
| Rab12 (endogenous, RBL-2H3 cells) (from UniProt P35284 1-291) (natural protein) | 14 | 60 | 4 | 90 | – | – |
| phosphoRab12 (endogenous, Ion/TPA-activated RBL-2H3 cells) (from UniProt P35284 1-291) (natural protein) | 38 | – | 18 | – | – | – |
| Rab12 (endogenous, RAW264.7 macrophages) (from UniProt P35283 1-291) (natural protein) | – | – | – | – | 50 | 80 |
